Source: patent EP2718310B1 (TLA Targeted Immunotherapies AB, dated 2017)

Columns and labels:
CCR3 (human) [1] = target: CCR3 (human) (UniProt P51677); assay: cell-based or functional assay
hCCR2b = target: T1, hCCR2b (human, UniProt P41597 1-374); assay: cell-based or functional assay
T1 chain: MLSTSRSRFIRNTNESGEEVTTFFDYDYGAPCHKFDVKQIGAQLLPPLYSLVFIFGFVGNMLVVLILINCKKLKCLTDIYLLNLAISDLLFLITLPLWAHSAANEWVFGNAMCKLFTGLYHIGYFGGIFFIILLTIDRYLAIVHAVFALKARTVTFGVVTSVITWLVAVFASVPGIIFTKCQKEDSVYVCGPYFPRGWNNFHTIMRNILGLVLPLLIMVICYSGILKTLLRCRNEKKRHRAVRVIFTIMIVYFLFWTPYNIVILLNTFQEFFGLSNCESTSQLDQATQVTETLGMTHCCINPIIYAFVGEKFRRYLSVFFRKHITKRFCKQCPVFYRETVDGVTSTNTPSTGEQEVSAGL

CCR5 (human) [2] = target: CCR5 (human) (UniProt P51681); assay: cell-based or functional assay
CCR9 (human) = CCR9 (human) (UniProt P51686); assay: cell-based or functional assay
CCR1 = CCR1 (UniProt P32246); assay: in vitro depletion: biotinylated RANTES coupled matrix, flow cytometry for CCR1, 3 or 5-expressing cells (receptor not singled out)
CCR3 (human) [3] = target: CCR3 (human) (UniProt P51677); assay: as above
CCR5 (human) [4] = target: CCR5 (human) (UniProt P51681); assay: as above
CCR3 (human) [5] = target: CCR3 (human) (UniProt P51677); assay: in vitro depletion: blood passed through magnetic column with eotaxin coupled MACS beads, flow cytometry for CCR3-expressing cells

Chain of CCR3 (human) (P51677 whole entry): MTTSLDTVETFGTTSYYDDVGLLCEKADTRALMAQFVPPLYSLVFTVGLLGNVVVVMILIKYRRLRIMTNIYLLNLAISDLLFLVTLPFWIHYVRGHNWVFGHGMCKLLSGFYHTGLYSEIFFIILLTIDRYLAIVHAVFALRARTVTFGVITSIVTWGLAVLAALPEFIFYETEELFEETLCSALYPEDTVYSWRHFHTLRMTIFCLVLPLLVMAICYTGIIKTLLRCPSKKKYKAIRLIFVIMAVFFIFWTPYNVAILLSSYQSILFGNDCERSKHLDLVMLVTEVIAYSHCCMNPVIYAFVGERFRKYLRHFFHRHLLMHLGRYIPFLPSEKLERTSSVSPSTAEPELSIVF
Chain of CCR5 (human) (P51681 whole entry): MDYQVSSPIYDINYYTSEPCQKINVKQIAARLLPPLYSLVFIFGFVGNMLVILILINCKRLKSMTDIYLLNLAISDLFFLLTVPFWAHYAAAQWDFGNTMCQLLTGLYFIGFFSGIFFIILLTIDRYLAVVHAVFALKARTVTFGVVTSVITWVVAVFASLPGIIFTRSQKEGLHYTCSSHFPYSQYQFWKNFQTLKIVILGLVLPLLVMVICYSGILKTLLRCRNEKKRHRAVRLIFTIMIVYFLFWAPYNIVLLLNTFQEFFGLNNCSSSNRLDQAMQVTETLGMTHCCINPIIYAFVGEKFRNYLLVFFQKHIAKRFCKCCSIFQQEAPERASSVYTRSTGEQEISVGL
Chain of CCR9 (human) (P51686 whole entry): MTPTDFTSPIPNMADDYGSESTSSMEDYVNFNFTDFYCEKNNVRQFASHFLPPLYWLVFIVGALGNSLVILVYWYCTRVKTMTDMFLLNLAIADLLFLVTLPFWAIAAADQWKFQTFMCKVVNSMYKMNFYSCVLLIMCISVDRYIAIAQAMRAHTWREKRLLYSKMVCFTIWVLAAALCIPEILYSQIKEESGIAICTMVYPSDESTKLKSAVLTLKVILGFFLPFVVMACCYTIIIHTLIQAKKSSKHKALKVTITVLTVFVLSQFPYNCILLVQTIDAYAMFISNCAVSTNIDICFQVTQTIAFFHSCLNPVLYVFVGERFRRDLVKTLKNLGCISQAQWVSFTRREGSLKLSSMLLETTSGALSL
Chain of CCR1 (P32246 whole entry): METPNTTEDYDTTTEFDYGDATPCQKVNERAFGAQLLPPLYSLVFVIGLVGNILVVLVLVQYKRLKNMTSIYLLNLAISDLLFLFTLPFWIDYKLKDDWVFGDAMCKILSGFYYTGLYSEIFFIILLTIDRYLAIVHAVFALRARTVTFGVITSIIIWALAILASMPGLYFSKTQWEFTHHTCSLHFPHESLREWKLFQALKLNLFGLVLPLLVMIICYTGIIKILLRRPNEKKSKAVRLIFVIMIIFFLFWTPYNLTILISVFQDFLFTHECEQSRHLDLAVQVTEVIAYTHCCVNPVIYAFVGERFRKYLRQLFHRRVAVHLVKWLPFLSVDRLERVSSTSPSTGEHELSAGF

biotinEotaxin (CCL11) (ligand) was tested. Which EC50, Aequorin assay (antagonist) (CCR3 (human) [1]) did it give?
Its EC50, Aequorin assay (antagonist) is 0.212 µM.

With biotinMCP-2 (CCL8) (ligand) as the molecule, how does the EC50, Aequorin assay (partial agonist) (hCCR2b) read?
Its EC50, Aequorin assay (partial agonist) is 0.0509 µM.

Which EC50, Aequorin assay (agonist activity) (CCR5 (human) [2]) does the source give for biotinRANTES (CCL5) (ligand) here?
The EC50, Aequorin assay (agonist activity) was 0.0005 µM.

How did the EC50, Aequorin assay (agonist activity) (CCR9 (human)) turn out when “biotinTECK(Met to Nleu substitution) (ligand)” was run?
The EC50, Aequorin assay (agonist activity) was 0.0636 µM.

What does the source list for “biotinylated RANTES coupled matrix (ligand)”?
reduction of receptor-expressing cells by the column (CCR1): 20%; reduction of receptor-expressing cells by the column (CCR3 (human) [3]): 20%; reduction of receptor-expressing cells by the column (CCR5 (human) [4]): 20%

Which reduction of receptor-expressing cells by the column (CCR3 (human) [5]) does the source give for “biotinylated eotaxin coupled matrix (ligand)” here?
The reduction of receptor-expressing cells by the column was 25%.

With “recombinant native TECK (from UniProt O15444 24-150) (ligand)” as the molecule, how does the EC50, Aequorin assay (agonist activity) (CCR9 (human)) read?
Its EC50, Aequorin assay (agonist activity) is 0.0679 µM.

For recombinant native eotaxin (ligand), which EC50, Aequorin assay (agonist) (CCR3 (human) [1]) is on record?
The EC50, Aequorin assay (agonist) was 0.0107 µM.

B1: recombinant native MCP-2 (ligand, UniProt P80075 24-99, looked up)
chain: QPDSVSIPITCCFNVINRKIPIQRLESYTRITNIQCPKEAVIFKTKRGKEVCADPKERWVRDSMKHLDQIFQNLKP
For B1, which “EC50, Aequorin assay (partial agonist)” value (hCCR2b) is on record?
Its value is 0.0235 µM.
